Test results from the supplement of paper PMC9170038.

System: K4 kissing-loop RNA reporter
Assay: apparent KD of K4 kissing-loop reporter; higher = weaker reporter binding
Details: Eterna round: R107
Protocol: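 RNA-MaP round R107: designed RNA switches with theophylline, tryptophan, arginine or FMN aptamers are transcribed on-chip within common flanks. They are titrated with a labelled K4 kissing-loop RNA reporter in RNA-MaP buffer (100 mM Tris pH 7.5, 80 mM KCl, 4 mM MgCl2), without ligand or with the indicated ligand. Median apparent KD per design.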

[1] = input ligand: theophylline 20 uM
[2] = input ligand: tryptophan 2.4 mM
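Also: bound reporter read as fluorescence of individual clusters on recovered sequencing chips by microscopy, with normalized cluster intensities fitted with a binding model.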

Sequence | apparent KD of K4 kissing-loop reporter (input ligand: FMN 200 uM) | apparent KD of K4 kissing-loop reporter (input ligand: arginine 13.2 mM) | apparent KD of K4 kissing-loop reporter (input ligand: none) | apparent KD of K4 kissing-loop reporter [1] | apparent KD of K4 kissing-loop reporter [2]
GUCAACCCAGCUGAUACCAGCCGGUUACGCACAUGCACACCCAGUGAUGUUGGGUAUUAGGGCCCUUGGCAGCAGCCUCUUGGCU [theeternabot_sameState_KL_Theo_B_30] | 165 nM | 162 nM | 169 nM | 182 nM | 149 nM
UGUGCCAACAGCGAUACCAGCCCGGCAGUGAUGUUGCCGGACGGAGUGAUGUUCCGGCAGGGCCCUUGGCAGCGCAGAAGCGCGA [Exclusion Theophylline B Gf 28] | 215 nM | 222 nM | 261 nM | 432 nM | 202 nM
UCUGCUGUAUAUGAUACCAGCAGUGAGAGACGAGAAGUAUAGUGAUGUUAUAUGAGAGAAUGCCCUUGGCAGCGUGUGCGUGUGG [SSTheophylB.aA] | 96.3 nM | 94.3 nM | 74.4 nM | 102 nM | 64.8 nM
UUGGAAAGACCAGAACAGGGCCUUAUCUGGGAGGAUAUGCUGGAGGGCAGAAGGCCCAGUGAUGUUGGGCCUUGUGCUCGUUCUA [Ainanti] | 165 nM | 125 nM | 139 nM | 137 nM | 145 nM
GUCCACACUGCAGGAUAUGGAGAAGUAGCGAGGGAGUUUGGAAGCACACCUCUGGCAGUGAUGUUGCCAGAAGGGCGGUGCGGCG [Inlaindi] | 109 nM | 80.2 nM | 80.6 nM | 84.1 nM | 93.9 nM
ACGUAGUUCUAGGAUACCAGCCAAAUAGCCAGGACGAGAGUCCUGGCUGCCAGUGAUGUUGGCCCUUGGCAGCCUAGAACUACGA [Theo B Ex Mod Omei v10] | 166 nM | 134 nM | 138 nM | 233 nM | 146 nM
AAGGUAUCUAGAUACAUUACUGAACUAGAUACCAGCAUCGAAAGAUGCCCUUGGCAGCUAGCAGUGAUGUUGCUAGCAAUAAGAA [Design3] | 121 nM | 109 nM | 113 nM | 112 nM | 119 nM
CCUAUCUCAUACGAUACCAGUCAACGAUAUUUUAUCGAUGCCAUCACCGAGUGAUGUUCGGACCCUUGGCAGCGUAUGGGAUAGG [Ex Theophylline B K4 4] | 248 nM | 244 nM | 270 nM | 445 nM | 251 nM
ACAGUAGUGAUGUCUUUGAUAUUACUACUGCGAGGACCGGUACGGCCGCCACUCGCCCAUUUUUGGGUUGAGAGUGAUGUUCUCA [Skye_SS_TA2] | 594 nM | 345 nM | 474 nM | 482 nM | 588 nM
GUGGAAAUCAGAAGGAGCGUCUACAAUAAGAAAACCAGUGAUGUUGGUUUUAUUUAAUGAAGACAGGUAGGUCGCUGAAUUUCUA [Same State Arginie B GF 20] | 138 nM | 106 nM | 118 nM | 105 nM | 118 nM
AAGCCAGUGAUGUUGGCAAAAUUUACUGAAGGAGCGCGUGAAAACGCAGGUAGGUCGCAGAACCUUGCCAACUAACACGAAAGUG [Ex Arginine A K4 20] | 261 nM | 237 nM | 253 nM | 469 nM | 251 nM
GGAUAGGACAGAGGAUAUCUCUGAGGCAAGAAAACUUGUCUCUAAAGGGAUGACUCAGUGAUGUUGAGAGAAGGCUGUCCUAUCG [FmnBX 11 - #SwitchBubble #StaticStem] | 295 nM | 141 nM | 154 nM | 140 nM | 149 nM
AUGAGGAACAGUGAUCCUACUCCAUGGGAAGGAGCGUAGGAUACUACAGGUAGGUCGCCCAGUGAUGUUGGGCGCGUGUUCUUGG [Ermaar] | 116 nM | 114 nM | 115 nM | 161 nM | 113 nM
UGUGUUGUUGUGAUGUUUGGUGUUGUAGGGCAGGAUAUCGUAGAGGCGAGAAGGGCUUUUGUGCGGUAUGAGUGAUGUUUGUAGG [svvsmullin] | 119 nM | 89.3 nM | 160 nM | 134 nM | 122 nM
UUGUUUGGUUGAGAGGUUGGGCGAGAUGAUACCAGUAGAGAAGAAUACCCUUGGCAGCAUAAGAAAGAUAUAGUGAUGUUGUAUA [SSTheophA.O] | 538 nM | 356 nM | 490 nM | 529 nM | 475 nM
UGACGCCUGUCGGCCGCCACUCACAGCAGCCAGUGAUGUUGGAUUGUAGCGGAGUGAUGUUUCGCGAGGACCGGGACUGCAGUUG [Same State Tryptophan B GF 13] | 259 nM | 249 nM | 260 nM | 321 nM | 250 nM
ACCGGACAAGAGGUGUCAGUGAUGUUGGCGCGAGGACCGGUACGGCCGCCACUCGAGGAAAGCGGUCACGCCCUGGUAGGACUGG [theeternabot_exclusion_KL_Trp_A_22] | 169 nM | 106 nM | 144 nM | 128 nM | 251 nM
GCCGUACGCACGGAUACCAGCACUCGGUGAGUGAUGUUCACGGUGUGGUAUUCACCGGGCUGCCCUUGGCAGCCGUGCGUACGGC | 375 nM | 301 nM | 343 nM | 1280 nM | 283 nM
UUUAAAUAUAGUGAUGUUAUAUAACAAUGACGAGGACCGGUACGGCCGCCACUCGAGAGAGAUAAUGGUAAAAUAAAUAAUUUUC [AstrosSSTryA#3] | 395 nM | 585 nM | 709 nM | 783 nM | 389 nM
CAUAGGAAACUAUGUAUCUCUCUUACUGAAGGAGCGCGUGAAAACGCAGGUAGGUCGCAGAAUUUAAUAGAGAGUGAUGUUCUCA [Ex Arginine A K4 6] | 393 nM | 332 nM | 496 nM | 513 nM | 473 nM
UUAGAUCAAAGAUCAGUCUUAUCAAGAGCACGAGGACCGGUACGGCCGCCACUCGAGUGAUGUUCGAGAGCUCUUGUGACAAAUU [AK2 EXC Tryptophan A] | 148 nM | 129 nM | 157 nM | 154 nM | 219 nM
CAAUGAGUUUAAGAUGAUAUCAUCACAGAAGGAGCGAGUGAUAACUCAGGUAGGUCGCUGAAUUUGUCGAGUGAUGUUCGAUAGA [whbob_SS_Arginine_A_sa120] | 191 nM | 153 nM | 186 nM | 166 nM | 174 nM

Sequence | apparent KD of K4 kissing-loop reporter (input ligand: FMN 200 uM) | apparent KD of K4 kissing-loop reporter (input ligand: arginine 13.2 mM) | apparent KD of K4 kissing-loop reporter (input ligand: none) | apparent KD of K4 kissing-loop reporter [1] | apparent KD of K4 kissing-loop reporter [2]
UGUUAUGUAUCAGGAUAUUAGUGAUGUUUGUUUAUGUUAGUGAUGUUGAUAUUUGUUUUAUGUAUUUAAGAAGGGAUUGUGAUGU [xexxmullin] | 74.1 nM | 23.1 nM | 55.4 nM | 35.9 nM | 57.8 nM
AAGUUGAACUGAAGGAGCGAGAAAUAGAAUGUAAGAAUAUAUGCUAGUGAUGUUAGAAAUUCUCAGGUAGGUCGCAGUAAGAUUU [V1.1] | 277 nM | 328 nM | 330 nM | 558 nM | 192 nM
UGCAGUGAUGUUGCUAUUUGUCUUGAUUAACGAGGACCGGUACGGCCGCCACUCGAUUUCUCUCUAAUCGGGUAUGUUGUUUAGU [#20 K4 Tryptophan A Exclusion] | 154 nM | 200 nM | 170 nM | 187 nM | 119 nM
AAACAUCACUGGGAGUGAUGUUCUCAGUGACGAGGACCGGUACGGCCGCCACUCGCGAGAGAUAUAAUUAAGUAAUGACUUCAUU [Excl Tryptophan A V7] | 241 nM | 205 nM | 231 nM | 246 nM | 287 nM
CCAUUCAUUUACGAUACCAGUCUAAUAUAUUUGAUCAAAACCCUCGCCGAGUGAUGUUCGGACCCUUGGCAGCGUCUGGGACAGG [eesetmullin] | 477 nM | 325 nM | 503 nM | 403 nM | 414 nM
AAGCUCAGCGUGACUCGAUAAGAGUCACAACGAGGACCGGUACGGCCGCCACUCGAAAUAAGGGAGUGAUGUUCUCGCUGAGCAA [#SwitchBubble 5 #StaticStem #K4Late] | 348 nM | 134 nM | 291 nM | 364 nM | 587 nM
AAUACUAUCAGAAGGAGCGUGGAAUAUUCAUCUGUAUCUAAUACGAGUGAUGUUCGUAAUUCACAGGUAGGUCGCUGAUUAAUAA [whbob_Ex_Arginine_B_2th157] | 274 nM | 275 nM | 253 nM | 266 nM | 231 nM
GGAUAGGACAGAGGAUAUGGUAGUGAUGUUACCAAACUGGUUACUCUUGUCAGAAAACUGGCAUCUCUAGAAGGCUGUCCUAUCG [KL-XFMN-B9] | 389 nM | 156 nM | 149 nM | 144 nM | 168 nM
AUCGGGAAUACGGCCGCCACUAUAGAGGCGACUACAUACCACCACAGUGAUGUUGUGCUGACCAGUAGGACCGGGUAAAAUCGAU [theeternabot_exclusion_KL_Trp_B_49] | 817 nM | 594 nM | 871 nM | 726 nM | 672 nM
CAGACCACAGAGUGAUGUUCUGUGUCCGAAGGAGCGCGCGAGAGCGCAGGUAGGUCGCGGAUACAGUUGACGUACCUUCAAGACA [Arg A Ex t3] | 193 nM | 179 nM | 205 nM | 230 nM | 219 nM
GCAGAACGCAGUGAUGUUGCGAAAUCGGAAGGAGCGCGUGAAAACGCAGGUAGGUCGCCGACACAGGGAUUAUAUCCCUGUUUGC [Arginine A K4 17] | 178 nM | 169 nM | 182 nM | 206 nM | 133 nM
UUAUAUAAUUAGUCUUUUUUAACAUUAAGUCAGGAUAUCGUAUAUUCGAGAAGGGACACAUGCUAGUGAUGUUAGCUAUUUCUUU [JR_ExcFMNA_Sub017] | 32.4 nM | 54.7 nM | 30.7 nM | 50.1 nM | 31.5 nM
ACAAGGGAUCCAGAUACCAGCACUCAAGGAGCUAUAUCAGCGAGUGAUGUUCGUUCAUAGUGCCCUUGGCAGCUGUACUUCCUUG [Essoengeis] | 115 nM | 107 nM | 123 nM | 114 nM | 110 nM
AAAAUAAUCCAGUGAUGUUGGUAUCCAGAUACCAGCGACGAAAGUCGCCCUUGGCAGCUGUGGACGUACAAAAUAAGUACGUCCU [#OpenEnded 9 #StaticStem #K4Early] | 502 nM | 386 nM | 535 nM | 842 nM | 630 nM
UGUGUUUACCUGACUCAGUGAUGUUGAGAAGGAGCGUGCGAAAGCACAGGUAGGUCGCUCAACCUAAAUUCAGGUGAGCACUAAA [#SwitchBubble 10 #K4Early] | 268 nM | 234 nM | 341 nM | 334 nM | 277 nM
AGUCCACUCUAAAGAGUGGACCUAAGGGAUACCAGUGAUGUUGGUCACCCUUGGCAGCCCAGGGCCCGGCGAAUAGCCGGGCCCA [#10 K4 Theophylline A Exclusion] | 125 nM | 99.8 nM | 115 nM | 121 nM | 125 nM
AUUCAGAUCUGAAGGAGCGCGUUAAGUCAAUGCUUCAUAGAGCAGUGAUGUUGCUCUGAAACGCAGGUAGGUCGCAGAUCUGACC [Arg B SS t17] | 295 nM | 250 nM | 325 nM | 288 nM | 287 nM
UGUCAUUGGUCGGCCGCCACUUCAAAGAGAGUGAUGUUCUUAAAGACGGAUCGAAAGAUCUGUCGAAGGACCGGGACCGAUGACU [TrypBS 17 #SwitchBubble #StaticStem] | 1770 nM | 973 nM | 1110 nM | 1200 nM | 285 nM
ACGUGCACCAGUGAUGUUGGAAAAUAUGAAGGAGCGGGCGAAAGCCCAGGUAGGUCGCAUAAUAGCACGAGCCACGAAAGUGGCA [#SwitchBubble 20 #K4Early] | 125 nM | 137 nM | 184 nM | 132 nM | 126 nM
AAUAAAAUCACGGCCGCCACUGAUAUCCAUAUUAGGAGUGAUGUUCCUUUGACUAUAUAAUUUUACAGGACCGGGUGAAUAUUUA [JR_Nu_SSTryptoB_Sub027] | 104 nM | 143 nM | 120 nM | 131 nM | 90.8 nM
AGACUACCACACUGUCAAUAGACAGUGAACUAGGAUAUGCUGAUAAGCAGAAGGAGUGAUGUUCCUGGGUAGUCAAUAAAAUAAU [FmnAX 13 G67] | 372 nM | 338 nM | 367 nM | 427 nM | 364 nM
